Article PMC9756111, “Stabilization of DNA fork junctions by Smc5/6 complexes revealed by single-molecule imaging”
Blank lines part the entries; values can stand above or below the molecule they belong to.

How the values were obtained:
[1] = target: Smc5/6 holocomplex (budding yeast) (UniProt Q12749); test: single-molecule dual-colour Qdot co-detection (TIRF, DNA curtains); as a1, but buffer exchanged to 250 mM NaCl: Smc5/6 diffusing freely on double-tethered dsDNA (after equilibration on DNA); cluster size by statistical inference, assuming no unlabelled complexes (lower limit)
[2] = target: Smc5/6 holocomplex (budding yeast) (UniProt Q12749); test: single-molecule dual-colour Qdot co-detection (TIRF, DNA curtains); Smc5/6 labelled with equal amounts of Qdot605 and Qdot705 anti-HA on the same epitope in 50 mM NaCl-Buffer R; puncta counted as they first appear on double-tethered dsDNA curtains (oligomers in solution), and binding at sites of previously bound Smc5/6; cluster size by statistical inference, assuming no unlabelled complexes (lower limit)
Smc5/6 holocomplex [3] = target: T1, Smc5/6 holocomplex (Saccharomyces cerevisiae (W303 …, UniProt Q08204;Q12749;Q07913;P38632;Q05541;P43124;Q03718;P40026 …)); test: single-molecule capture on DNA curtain (TIRF); Smc5/6 preloaded on lambda dsDNA; 16 nM oligo; 1 mM ATP; mean about 4.0 oligos per punctum; Buffer R (composition not in material); dsDNA binding in 25 mM NaCl + 25 mM KCl, capture in 50 mM NaCl + 1 mM ATP; other steps 50-250 mM NaCl; pH and temperature not given in material; conditions: protein: recombinant; tags: Smc6-3xStrepII; Nse4-His-3HA (Qdot anti-HA label); copies: 1;1;1;1;1;1;1;1; label: Alexa594; single stranded
Smc5/6 holocomplex [4] = target: T1, Smc5/6 holocomplex; test: single-molecule capture on DNA curtain (TIRF); Smc5/6 preloaded on lambda dsDNA; 1 mM ATP; mean about 3.2 per punctum; Buffer R (composition not in material); dsDNA binding in 25 mM NaCl + 25 mM KCl, capture in 50 mM NaCl + 1 mM ATP; other steps 50-250 mM NaCl; pH and temperature not given in material; conditions: protein: recombinant; tags: Smc6-3xStrepII; Nse4-His-3HA (Qdot anti-HA label); copies: 1;1;1;1;1;1;1;1; label: Alexa594; 3' overhang 9 nt on strand 2

N, mean cluster size with a truncated Poissonian model (Smc5/6 per punctum) [1]: 3 to 4
fraction of puncta with both colours [1]: 67%
stoichiometry N (Smc5/6 per punctum) [1]: 2 to 3
N, mean cluster size with a truncated Poissonian model (Smc5/6 per punctum) [2]: 2 to 3
fraction of binding events from solution with both colours [2]: 39%
fraction of complexes that oligomerized on DNA (bound to previously bound Smc5/6) [2]: 10%
stoichiometry N (Smc5/6 complexes per punctum) [2]: 2
Molecule: Smc5/6 holocomplex (from UniProt Q12749 1-1114; Q08204 1-1093; Q07913 1-336; P38632 1-267; Q05541 1-303; P43124 1-402; Q03718 1-556)

B1: capture01 ssDNA-Alexa594 (ssDNA)
DNA: ATATATCTGACGCGTGCCTGGAGACTGGGGAGTAATCCTCTTGGCGGTTAAA
modifications: Alexa594 between ...GCGGTT and AAA
binding result (Smc5/6 holocomplex [3]): binds

B2: capture01/capture02 dsDNA-Alexa594 (dsDNA)
DNA 1: ATATATCTGACGCGTGCCTGGAGACTGGGGAGTAATCCTCTTGGCGGTTAAA
DNA 2: TTTAACCGCCAAGAGGATTACTCCCCAGTCTCCAGGCACGCGTCAGATATATACATCCTGT
modifications: Alexa594 between ...GCGGTT and AAA of strand 1
binding result (Smc5/6 holocomplex [4]): binds
